Data on 70 sequences can be found in the domain aggregation screens of Martell et al. (2025).

A short description of this data set: soluble fraction after stress (log2 fold change); higher = more stays soluble; pooled small domains, quantitative proteomics. To be noted: stress: 75 degC.
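Also: 20 min heating vs room temperature control held 20 min.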

“HMNDVGKVLNQLGERDRMILLLTYWDELPLKEAARILEVSENNAKIILFRARSRFASLWSAGS”: the “soluble fraction (log2)” value was -3.14.
The same measure for “HMNEAVVVPDVKGLTLDEADEFFKNSKLRYNVVDSVFSKDVAPGAIVELVPVAGSKVKENRIVFVTINAQ”: -0.361.
In the case of “HMNEDTEDIKNINSLVNKLTENNFDIIRDSIVKLINKEHLIPYIIETIIEKSILHHRYVHLYVSILKE” it was 0.219.
Consider “HMNEDYSSMVGKTGFALTILRPAGKIMIEEEVFDAVAINGYISKGQEVEVVRYENAQLYVKVK”, for which the “soluble fraction (log2)” value was -1.04.
Regarding “HMNEFGIPDKKLQDIETRVNSMSLEQLNAARSMLIDEQEALNSSTGSASSGRLKEIAAELSTIQKALIAIA”, the “soluble fraction (log2)” value is -0.00417.
The same measure for “HMNEFNEVVPDSLEGERLDRLLAFIGNISRSEASNIIKGGEVLINGKVVTRPSFKVTLGNRVEFSIRD”: -0.531.
The same measure for “HMNEGETLYRLRAGDGRARLDKFLAAALPDISRTRFKGLIESGHVRVGGETITEPAYRVKSEAEVELTVPE”: 0.0126; for “HMNEIALETAIEDVESFIQMQNRNLAFSIDEDTDRAVVTVRDSDSGDVIRQIPSEEVLALAERIQDLQQD”: 0.0361; for “HMNEIDDYDIQLLEYLSKGVSQEAMESVFKQAGITPNSKSTIEKRISKLKIYFKALNTTHLVSITKDLGL”: -0.647.
In the case of “HMNEKEAEEAAEAQTEVPDVTGMAPAQAKNMLYQAGLSSEYRGEGETVSRQLPPAGETVNRGTKAVLYL” it was 0.0203; in that of “HMNEKGTNSTINEITRISKPGRRVYVGSAEIPKVKSGRGLVLISTSKGVMTGAEAAKAKLGGELLLKV”, -0.000493.
Consider “HMNEKMKEIGLRIKELRELSDISAQGMADHLKIPLETYQEYEDGKKDIPASILFEISQKMEVDMGLLLTGE”, for which the “soluble fraction (log2)” value is -0.476.
“HMNELTDKQILLFSNKLAHNIPFSSKYSKPGESYEEFAERLANELIDPQKVKLYKPYLEEVGFK”: the “soluble fraction (log2)” value worked out at 0.788.
In the case of “HMNEMIFNQKKIGQFFMNPETNSPMIYPLELGHKMKIIELKNGWYNVTDEKTGLNGWVKEEDFGVTKPLDS” it was -0.346.
The same measure for “HMNENDENLRQQAIDASKEVRRWGEPVTLPPMNAHDRRIIHITLEGESDLQTESTGEGNFKSVVISLK”: -0.171.
In the case of “HMNEPSSYGYAISVALDRNGLGTVKGGTLYPLLARLEQAAHVETRWEAGDGGPGRKYYTITDSGRS” it was -0.214; in that of “HMNERLKQLRLSLNLNQEEFGKWLGISKSGVSDIESGRRKVTEQHIIMLSNHNISEKWLRTGEGEMFV”, -1.21.
Turning to “HMNETNKMPNLVNQTDSSAIAQLNAMELGLKITTKEESSETVLAGYVIRTEPAADTELTKNQAVTVYVS”, the “soluble fraction (log2)” value is -0.00951.
The same measure for “HMNETTVPDVINQNISTGKIIIEDADLEYRIQYIPSEKSSSIGTIINSIPIYGKRVKSGTIVDLKVLG”: -0.248; for “HMNETVTNQTVLDLLKEGFTSEEIIGAIENSSTRTITYDINFMRQLKAAGADVTLTTYLQKIAKKDM”: -0.136.
The same measure for “HMNEWSIDINLADEKQWTAKTKLSPAIIQNIIRYKNYLGGFTNLNQIKKVYGFTEANYYLLKPHLQLGK”: -0.837.
In the case of “HMNFDLDSFKQRMTLDGLYFGNEKQDVIALNNLSERYQLTWFDVYQLAKETSSNHKILPKRILVKLQQ”, the “soluble fraction (log2)” value is -2.09.
Regarding “HMNFEIEVTENGKRIDSYLAEELDLSRSKVQKLIKQELVTVNGKVVSNNYNVKLGDTILVNDD”, the “soluble fraction (log2)” value is 0.113.
The same measure for “HMNFFQEIGNSILIELNKKNWTQSMFAHKIGVSDEVFKQIVQGKKALNAVEIAKIANTLDVDPEKLLRK”: -1.08; for “HMNFTEAEQRFHFLEDQRQRGVLSLEQYRAELAQLRVTDAWGRLWMLQEQTGQWFVFHEGQWRPSQ”: -0.408; for “HMNGEDVTDAIRLPQISQYASVVSAYPGVRAFLLEMQRDFARKGSVIMDGRDIGTVVLPEAEVKIFLT”: -0.367.
The same measure for “HMNGGPHYLRDVRTSLGLSQADLAKAVGTSANMIHYLESGERALTLKWIRRISEALNVSPMRLIN”: -2.06; for “HMNGLPDLSRYTGVSIVDGLASVGSDSSFAYRAKIAETLGISDYKGSAGQNLEMIRKLGGKV”: -0.517; for “HMNGTGSVYKLSGKRRNPWRAVVTNGWAYNEEKGKLVQNRVTIGYYHTRDEAIQAIANYNSSP”: -1.53.
The same measure for “HMNGVFIMHTPDGKVLRTEEGEEAVITLFNWSGQLLWSKTSLGQLPLPEGTQGVLQVQYKSGDQHTIKT”: -1.28; for “HMNHAPSLMRKIRRGLKEGRNPDDLLVNAKSISDYYYRSLSFYLLAPHFSSKSKQYKQVISLANS”: -0.064; for “HMNHHTEQQLKALSNKVKDHRMRMRLLAVAHFKAGKNKADVARTLNVSRRMVNEWVANYFKGGVSALES”: -3.43.
As for “HMNHLLYPNPANNFIWIKNSTSNTAVIYNLQGVMSKVEVSEEGKIDISRFSPGLYMIKQGERIYKFTIA”, the “soluble fraction (log2)” value is -1.75.
In the case of “HMNHLSYEQRLKIKEMLDGGFKKIDIARALGVHNATIYREIERGSVNGIYNPNKSEEQYRDHLSEK” it was 0.378.
The same measure for “HMNHYIGVDRAKEIALNHANLSETDVVFTKEKLENDDGGAEYEIEFHSGRTEYDYTIDAASGNIIEYDVDY”: 0.324; for “HMNIDGLIGKKALVTADIDNVNSKGQIKINGLEWTARSVDDEPIPMGTEVEITAISGVKAIVRKG”: 0.139.
In the case of “HMNIEANLEDILRRAMPSAAKLILENSLNINKIIGTGKEGRITKGDVLLYLKDKNLILENILN” it was -0.079; in that of “HMNIEEAESILKEIKTVLTDKEYEVYTLRAKGFTYQEIASLLNTTTKSVDGALSRIKTKINNIK”, -0.674.
As for “HMNIFKLYEENIGPLTPMIADILKEDEAEFPDYWIREAIEIAVKKNARNWKYVHAVLESWQKE”, the “soluble fraction (log2)” value was -3.47.
The same measure for “HMNILKAPMPGLILDVIVKESDLVKKGDPVIILEAMKMENILSSPVDGIVKEIKVNPQQTVEKNNTLIKFE”: -0.0843; for “HMNILNFSENIIKLRHKKGITQEELADFVGVTKASVSKWETKQSLPDIMLLPRLAAYFDVTVDELLGYEP”: -2.16.
The same measure for “HMNINHEINIKSKKKISILENNPNLSQFYLTKNPDQYNYNLVFSDKSELNKLKEKLESDNEVEDIDIRYG”: -0.0517.
In the case of “HMNINTEMEKVSYSLGVNIASSLKQQGWELDAKSLSDAFVDVFNGNKLLIDEKEASSILQNYQQKIANK” it was 0.0321.
“HMNIQKYFAGREQFIELLEAVGIRTLEQFASADPSTVLPELHQAKRMLKLQTEIPSAPVFREWVNQALS”: the “soluble fraction (log2)” value was -0.636.
In the case of “HMNIQPAMLNAANGGVAWKERGISMSQIMKRNAHTAEGSQKLWDYAFENFFQKNIDAGNIRDDR” it was -0.157; in that of “HMNIVKGDTTANVRVVQQRLYNLGYYTYKVDGIWGTRTKTAVKKFQKDKGLVADGIVGAKTEKALGITLT”, -2.35.
In the case of “HMNIVVSSIDSNSFEIVNKETGEQAVISYDKETKKGFVLINGVKKEFFQDGNKVYYDGYVIAE” it was 0.0406; in that of “HMNKDEFLNELKSYLSILEDEEQADILEEYTQHIDMKISTGLSEAEAIRDFGNVSELAAQILEAY”, -0.465; in that of “HMNKIGTIVSINGPIVKTAGDVGFVMHEMVYVGKEKLVGEVIGLTTDFTIVEVYEETSGIKPGETIEGT”, -1.87.
In the case of “HMNKKEIISVLEKIIPPSQIKNINIFGSELVIDLNIDNPSLHAKKKLEKSIMSSFDENLKIIVNFSVE” it was -0.252; in that of “HMNKLSISALAETVSTKRKEKSMTQQDLSDATGINRALISRLEQKDFIPSIPQLEKLEEILGFELEEVF”, -0.324.
In the case of “HMNKMHKLPSVSEILNKVRLQKIHNESFIKFKIKEEIDRYRKLAKKDQLFLSRDEITYEIIEKLLNFSMPS”, the “soluble fraction (log2)” value is -3.97.
In the case of “HMNKMIDAPDLTGLSLEDAKLVLEANKLQLGTVSHEPSDKPEDVVISQDPMEGQEIQQGGKVNLVVSYGD” it was 0.305.
With “HMNKNNLRNVSSKIRKSRRVLNLSQAELSKKLDISPSYLNLIESGKRPITVPLLIKLGNILGISLKDL”, the “soluble fraction (log2)” value was -1.89.
The same measure for “HMNKNQIGTNAGIVWKLLSDNVHWEYDKLKHASGLSDRDLNAAIGWLAREDKIDFDIDEQHDRLFL”: -0.515.
“HMNKPKIIINSVDDSVFSDYVKDSLSIAEVARSIGIDNNKINTSVYREIHKRIDSLKLDTSHFTGGAWN”: the “soluble fraction (log2)” value was -0.235.
In the case of “HMNKPLFVYPNPVHQGKINLSKATNFMVVDLLGQTVNKTNYGKDFSIDNLPNGVYFIKTTEGEIIKFMK” it was -0.701; in that of “HMNKQEFLNTLRIIFKKANVLDVESIIDVYEEHFAVGYEKGLNDEQIIKSLGTPKEIYTSYVEAGI”, -1.31.
The same measure for “HMNKSGVVLIRVTVDASGRVTSAAYEPKGSTTSDVELVAEARKAALRTRFTESRTVIEGGVITYIFKL”: -2.59.
The same measure for “HMNKSYTVPDVRGMTVEEAQEAEGVKDIFTVHVQGTRKTDEYQPGQIVEQDPIAGRTRKSNFVIEVYVAE”: -0.34; for “HMNKTQLQIEDEVLKPLIAEIFSKSKGRFGARKIRSKLMGLGYTASERRILRLMKELGLSSAG”: -1.19.
On to “HMNKTVKIPNVSNLSREDAESVLKENGISVNSEVKQIESDTIEKGKVVKTDPSIGTSVKKGRSITIYVSSG”, for which the “soluble fraction (log2)” value is 0.544.
The same measure for “HMNKWMQLASEEDKKLFNEAPKEIQDSITESAKFFDIRTKADVDTFWANTGLRQMKQQAMLNESFVNEY”: -0.0697.
In the case of “HMNLDMVINKIGIVTEDIKQDKIGEVKVLGKRWSAYSNTELKKDEKVKILSIDGVKLKVEKI” it was -0.135.
The same measure for “HMNLGAHVYWRNHRAYGDFREYEDVGGGREALALPGSTWGTKDPRVAQALFAARLTEFQEARVGR”: -0.989; for “HMNLGVIYSLKAEVRSEPNTFSTRLFEVHEGLKVSINQLENDWVEIELLDGKTGWISNDQIRLI”: -2.61.
For “HMNLIFFSENLSTFRKEKGWTQSELAEKLGVKANTISNYEKGISTPDYKIIAKLRELFEMPTDVLLYSNLS”, the “soluble fraction (log2)” value is -1.86.
“HMNLLDYDFFEKMSSKEQEEIVEKVYIDFLNKSTGTNSPFYLKLFEKGKKSYIVNWLNENNF”: the “soluble fraction (log2)” value was -1.77.
In the case of “HMNLLSPREKQSLTLYASGLTLREVASELKLSPNSVGKFISRGKFKLNKSGAIVNSKTSIYLELKKRNLI” it was -0.147; in that of “HMNLNESVELGQELLSQALAQLGIRGELSPSTIDKLLAESSAKSMEELYADIGIGKRMPALVARHIFGLMD”, -0.627.
